Results as given in patent US11982671B2, “Identification of a T cell epitope of Prevotella copri that induces T cell responses in patients with rheumatoid arthritis” (priority 2016, dated 2024).

System: serum IgG and IgA antibodies
Assay: ELISA for serum IgG and IgA antibodies to the P. copri protein (Pc-p27)
Format: binding, human
Protocol: ELISA for serum IgG and IgA antibodies to the P. copri protein (Pc-p27). ELISA plates were coated with 0.25 μg/ml of the P. copri protein Pc-p27 (GenScript USA Inc, Piscataway, N.J.) overnight at 4° C. Subsequent incubations and washes were performed at room temperature. After washing with phosphate buffered saline with 0.05% Tween-20 (PBST), the plates were incubated with blocking buffer (5% nonfat dry milk in PBST) for one hour. Afterwards, 100 μl of each patient's serum sample (diluted 200-fold) was added in duplicate wells for 1.5 hours, followed by horseradish-peroxidase (HRP)-conjugated goat anti-human IgG (sc-2453, Santa Cruz Biotech) or HRP-conjugated goat anti-human IgA (Bio-Rad, Hercules, Calif.) and then TMB substrate (BD, San Diego, Calif.). For inter-plate standardization, 2 control samples were included on each plate.

B1: Pc-p27: full length 27-kD protein of P. copri, recombinant (GenScript) (protein, listed as Prevotella copri)
chain: MKRIILILTVLLAMLGQVAYAQKTCVIASAENHVPIREALIHTNNNHWARTDYRGYWTMRYQFDSATVSKPGFMKATIRYKELPDTLFLLPDAKQLGEVTVWGKNQEGIKNMEEDIQEKINSLPTSSTGIGFDAFGWMDKQGKRDKKHLQQAKKVFEKMEHKDPVVAAYEKATGKKYELTNPYDVSAFKKDPPSEMATEEKKATSDAESKSKKKENPEKYAQE
49 CRA patients
  patients with positive IgG antibody responses: 20%
78 NORA patients, serum diluted 200-fold
  patients with IgG antibody responses >3 SD above HC: 13%
127 RA patients
  patients with IgG or IgA antibody responses: 24%
Both the NORA and CRA groups
  patients with IgA antibody responses: About 10%
